From PMC9388122

Tests used:
[1] = target: (H3-H4)2 tetramer (recombinant Xenopus laevis histones) (X. laevis) (UniProt P84233); assay: single-molecule photobleaching steps (optical tweezers with fluorescence detection); H2A-Cy3 hexasomes ligated to 2.5-kb DNA handles
[2] = target: (H3-H4)2 tetramer (recombinant Xenopus laevis histones) (X. laevis) (UniProt P84233); assay: single-molecule photobleaching steps (optical tweezers with fluorescence detection); H2A-Cy3 nucleosomes ligated to 2.5-kb DNA handles, at low tension

Substance: H2A-Cy3-H2B heterodimer (H2A labelled with one Cy3 at the C-terminal tail by sortase) (from UniProt P06897 1-130; P02281 1-126) (complex)
- stoichiometry N [1]: 1
- stoichiometry N [2]: 2
